The assay concerns the target BG505 SOSIP trimer (HIV-1 (BG505)) (UniProt Q2N0S6). In words: SEC-MALS.

The term stoichiometry N denotes the number of molecules, sites or subunits per partner or assembly. “BG505 SOSIP trimer (from UniProt Q2N0S6 1-860; Q2N0S6 1-860) (complex)”: the stoichiometry N turned out to be 3.

The record behind these values is publication PMC6224390.
